We go through one molecule from publication PMC7523994.

Test [1] has as its target γ-gliadin (Triticum aestivum) (UniProt P08453). The experiment in a line: SPR; α-gliadin, γ-gliadin or (PQQPY)8 covalently bound to a CM5 chip (EDC/NHS, 10 mM acetate pH 4.7); PINA flowed over at 10 μL/min, 25°C, 10 mM Hepes pH 7.4, 150 mM NaCl, 3.4 mM EDTA, 0.005% P20; global kinetic fit, 1:1 Langmuir model. A general note: In SPR one partner is held on a chip, and binding of the other changes the refractive index at the surface.

The target of test [2] is α-gliadin (Triticum aestivum). Described as above.
Test [3] deals with total gliadin fraction (Triticum aestivum). Briefly: turbidimetry; optical density at 540 nm after 30 min of mixing at room temperature; gliadins constant at 1 mg/mL, PINA 0 to 0.1 mg/mL; 20 mM malate pH 5, with or without 0.1 M NaCl; Hill ligand-binding model.
For test [4] the target is unchanged. The experiment in a line: turbidimetry; optical density at 540 nm after 30 min of mixing at room temperature; gliadins constant at 1 mg/mL, PINA 0 to 0.1 mg/mL; 20 mM citrate pH 5, with or without 0.1 M NaCl; Hill ligand-binding model.
Test [5] has the same target. The experiment in a line: turbidimetry; optical density at 540 nm after 30 min of mixing at room temperature; gliadins constant at 1 mg/mL, PINA 0 to 0.1 mg/mL; 20 mM Tris-HCl pH 7.2, with or without 0.1 M NaCl; Hill ligand-binding model.

One may read the Kd as a measure of binding affinity in units of concentration. A low value points to tighter binding. One may read the koff as the first-order rate constant of dissociation. A word on the kon: it is a measure of how fast the partners come together. Lower therefore signals slow association.

Chain of γ-gliadin (Triticum aestivum) (P08453 20-327): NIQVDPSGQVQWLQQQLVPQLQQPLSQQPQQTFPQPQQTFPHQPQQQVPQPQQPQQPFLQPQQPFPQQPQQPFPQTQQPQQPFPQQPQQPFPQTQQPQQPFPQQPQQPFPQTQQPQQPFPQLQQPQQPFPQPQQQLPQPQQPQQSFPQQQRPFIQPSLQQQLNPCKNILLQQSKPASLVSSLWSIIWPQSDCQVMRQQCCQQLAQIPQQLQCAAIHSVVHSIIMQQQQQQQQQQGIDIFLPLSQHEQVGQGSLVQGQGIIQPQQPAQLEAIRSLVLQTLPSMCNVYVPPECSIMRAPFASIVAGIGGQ

B1: puroindoline A (natural protein)
chain: DVAGGGGAQQCPVETKLNSCRNYLLDRCSTMKDFPVTWRWWKWWKGGCQELLGECCSRLGQMPPQCRCNIIQGSIQGDLGGIFGFQRDRASKVIQEAKNLPPRCNQGPPCNIPGTIGYYW
With B1, the Kd turned out to be 630 nM in test [1]; 4450 nM in test [2]; 400 nM in test [3]; 600 nM in test [4]; 1000 nM in test [5]. The koff in test [1] was found to be 0.00185 s⁻¹; in test [2], 0.00255 s⁻¹. For the same molecule, the kon was determined as 3600 M⁻¹ s⁻¹ in test [1] and 450 M⁻¹ s⁻¹ in test [2]. In addition, the response at equilibrium at 2.5 μM PINA in test [1] worked out at 34 RU; in test [2] it was 160 RU.
